{"source": "paper PMC6791372", "about": "(ACS chemical biology, 2019)", "target": "the molecule itself", "experiment": "crystal structure", "data": [{"protein": "MetA crystallisation construct (C-terminal residues 297-309 truncated, P257I) (enzyme, E. coli, UniProt P07623 2-296, looked up) PIRVPDELPAVNFLREENVFVMTTSRASGQEIRPLKVLILNLMPKKIETENQFLRLLSNSPLQVDIQLLRIDSRESRNTPAEHLNNFYCNFEDIQDQNFDGLIVTGAPLGLVEFNDVAYWPQIKQVLEWSKDHVTSTLFVCWAVQAALNILYGIPKQTRTEKLSGVYEHHILHPHALLTRGFDDSFLAPHSRYADFPAALIRDYTDLEILAETEEGDAYLFASKDKRIAFVTGHPEYDAQTLAQEFFRDVEAGLDIDVPYNYFPHNDPQNTPRASWRSHGNLLFTNWLNYYVYQI", "values": [{"measurement": "binding result", "result": "binds"}]}]}
